In the RNAGym collection of RNA variant scans (doi:10.7554/elife.90254):

B1: LINE1-mini (parent)
chain: GGCAGAGCUCAACACAGCGUGGCAAAGUGGCUGUGGCUAGACUGCC

Variants of: B1
Assay: self-cleavage, relative activity (ratio to wild type); higher = more cleavage; in vitro, sequencing; the parent is a self-cleaving ribozyme

Variant | self-cleavage
G7A U28G | 0.16
G35C | 0.11
A4U U38A | 0.12
C8G A12G | 0.03
U9A U34A | 0.21
A16U G36C | 0.07
A11U U38C | 0.05
A41G C42A | 0.12
A11G A41G | 0.02
A4C U28C | 0.22
A14U | 0.45
G21U G36U | 0.12
G7A C10U | 0.04
G27U C37G | 0.03
A24C A25G | 0.89
G17A G30U | 0.2
A26C C31U | 0.17
A14C G27U | 0.09
G7A U32A | 0.13
G5C C15U | 0.08
G2C G27C | 0.12
U28A U43A | 0.11
U9A A12G | 0.05
U28A U38A | 0.38

Variant | self-cleavage
G1C A14G | 0.08
C3U A16C | 0.09
A26C C45A | 0.8
C15A U34G | 0.05
C23A A24G | 0.53
A6U G22C | 0.37
C13U C45G | 0.06
U32G U34G | 0.03
A11C G22U | 0.07
U34G A41C | 0.04
G27C G33U | 0.12
A11U U34C | 0.05
C13G G40U | 0.08
C31U U43C | 0.06
C10A A11G | 0.03
U28C C31A | 0.87
A16G G27C | 0.17
G29A G44C | 0.34
G7C C23U | 0.1
G5A A41U | 0.08
G30A G40A | 0.19
U9A A41C | 0.08
G22U A25G | 1.01
G7A C37G | 0.05

Variant | self-cleavage
A6G A41U | 0.1
C23U G33C | 0.05
C8A A11U | 0.03
G17U G30A | 0.82
A4C C42U | 0.2
G2U U34C | 0.04
G40C G44U | 0.07
A4C G40U | 0.13
G27U U38G | 0.03
A11C C42G | 0.03
G2A C13A | 0.36
C8A G27U | 0.16
G19U G40A | 0.08
C23G A26G | 0.76
A14C C23G | 0.11
C3U C23G | 0.46
C15A G29A | 0.16
G1U G5A | 0.2
U32C G35C | 0.08
G1C A11U | 0.03
G5A C46U | 0.12
C23U U32C | 0.61
A26C G27U | 0.46
C8A U28G | 0.08

Variant | self-cleavage
G21C C23G | 0.53
U28C A41G | 0.43
C10U A26G | 0.4
A24C G44A | 0.18
C3U A11U | 0.08
C3G C46G | 0.35
C15U A26G | 0.88
C10A A24U | 0.05
U20C C42A | 0.04
C23G C31G | 0.07
G19A C45G | 0.38
C10U U28A | 0.16
A39U C42A | 0.1
G1A A16G | 0.25
C10A A14U | 0.05
U34G C45A | 0.06
G5U A16G | 0.06
G5U A16C | 0.03
G1A C15U | 1.02
G21A G35A | 0.15
C3G G44U | 1.21
C3G G44A | 0.35
A11G G27C | 0.03
U9C C42A | 0.03

Variant | self-cleavage
C10G G17A | 0.16
G7A U34A | 0.1
G35A U38A | 0.1
A12G U34C | 0.05
C15G U34A | 0.52
A41U C42U | 0.09
C18U G22A | 1.76
C8G A14U | 0.08
G5C G44A | 0.05
G5U G40A | 0.06
G7A U20C | 0.07
C18G A24C | 0.17
C10U G36U | 0.03
C3G G29U | 0.55
A24G C46A | 1.75
C3G C23U | 0.81
A4C U20A | 0.08
G27A U32A | 0.06
A24U G33U | 0.08
C18G C42A | 0.07
A4C G21U | 0.21
C37U A39C | 0.14
C10A C23G | 0.07
C8U A25U | 0.18

Variant | self-cleavage
U38G C42U | 0.03
A6G A26C | 0.14
G2U G40C | 0.03
U28A G33A | 0.06
G40C C42G | 0.1
C8U U34C | 0.18
A25C A26U | 0.68
G7U A24C | 0.06
A14C G40C | 0.04
C13U A41G | 0.06
G5C C18A | 0.05
A25U U43G | 0
G27C U32C | 0.12
C3G A26G | 0.36
G17C | 0.79
G17A | 0.19
G5C A25C | 0.05
G7U C45G | 0.29
A11G G40U | 0.03
U20G C46U | 0.44
G7C G40A | 0.13
G1A G19U | 0.94
G1C C23U | 0.07
G7U A25G | 0.1

Variant | self-cleavage
G19U U28A | 0.63
A26G A39C | 0.18
G17A A25C | 0.07
G1U C37A | 0.06
G7C G36U | 0.1
C37G G40U | 0.08
C10U U32A | 0.08
U28A G30U | 0.77
G5A G7C | 0.23
C10A G40A | 0.02
A6U G17U | 0.26
A16C A24U | 0.11
C23U G40U | 0.11
A6U U9C | 0.08
G2A C42A | 0.36
C15U C45A | 0.21
G27A | 0.81
G1U U28C | 0.24
A6G C23G | 0.1
C23G U32C | 0.28
A26U U38A | 0.35
C13U G33A | 0.07
A24U U32G | 0.12
C15A A39G | 0.08

Variant | self-cleavage
C18G A26C | 0.86
C8G U43A | 0.03
G36A A41G | 0.2
G1U G44C | 0.14
A14G C37A | 0.07
C37U C42U | 0.1
C3A U34G | 0.12
G21A A24U | 2.52
A39C G40C | 0.07
G2C U43C | 0.15
A6C C42G | 0.02
C10G C23G | 0.07
U9A U43C | 0.14
A11G G29A | 0.04
G33U C45U | 0.08
C15G A41U | 0.06
A24C U34G | 0.05
U34C C42U | 0.12
C3U A41C | 0.09
C42A U43G | 0.07
G2C A16G | 0.09
C23G | 0.84
C23U | 1.03
C15G C23A | 0.06

Variant | self-cleavage
C8A A16C | 0.25
A14C G44U | 0.07
C10G A26C | 0.11
C10A A12G | 0.02
G19C C37U | 0.03
A26G G29C | 0.89
G2C A41U | 0.12
G44C C46A | 0.1
G33A A41C | 0.07
G7U U9C | 0.04
A11C G19U | 0.04
A6U G40U | 0.3
G22U U28G | 0.83
A14C A16C | 0.08
C37A C42G | 0.06
C10A G36A | 0.02
C23U C45A | 0.47
C45G C46G | 0.53
A6G C15G | 0.02
G17A U20G | 0.07
G27U U28A | 0.34
G33C A39G | 0.03
G5A | 0.16
G19C G33U | 0.34

Variant | self-cleavage
A26U C31A | 0.14
G2U A14G | 0.08
A14G A25C | 0.18
A16C G33C | 0.05
A16C G33A | 0.07
A6C A24G | 0.49
G17A A41U | 0.12
A6C U34C | 0.11
A6C U34G | 0.25
U43C C45U | 0.13
G7C A24U | 0.19
G35C C37U | 0.03
A24U C45U | 0.91
C15U G22C | 0.53
U34A C37A | 0.08
U20C C23G | 0.44
C3G G5U | 0.11
C8A C23G | 0.22
C8A C23U | 0.27
U43A C46G | 0.14
C23A A26C | 0.98
C8A U20G | 0.15
U9C | 0.04
C8U G40A | 0.41

Variant | self-cleavage
C15A C31U | 0.04
G19C A39G | 0.02
C18U U38C | 0.27
A11U G29C | 0.09
A6C C10A | 0.11
G19C U38G | 0.01
C10G C18A | 0.08
G19C U32G | 0.43
G36C C46G | 0.08
G36C C46U | 0.05
G7U A26C | 0.24
G19C A24C | 0.34
A25C G30U | 1.11
C18U A25C | 0.86
C13U G44C | 0.06
U9A C10A | 0.04
U9C G40A | 0.03
G36C U43A | 0.08
A12U U32A | 0.04
C10G C13U | 0.04
G29C G35A | 0.13
G1U A14G | 0.12
A4C C18G | 0.11
A16U U34C | 0.07

Variant | self-cleavage
C13G A16U | 0.15
G2A U43A | 0.14
U9G G17A | 0.12
U20A U38G | 0.02
G29U C42U | 0.44
A4C G35C | 0.11
C3A U38G | 0.51
C23U A24U | 0.84
A4C C46U | 0.18
G19U C45A | 0.43
G22U U34A | 0.19
A25G G35U | 0.06
G21C U32G | 0.23
A24G G44U | 0.15
U34G C46G | 0.14
U28C A39G | 0.09
A12G C18A | 0.03
U9C G19C | 0.05
A26G G30A | 2.6
A14U G35A | 0.16
C3A C37G | 0.28
G7A C13A | 0.45
A24U A39C | 0.23
A25G U28A | 1.01

Variant | self-cleavage
U9G A14G | 0.12
C23A G36U | 0.06
A11C A41U | 0.04
A4G C13U | 0.23
C10G G22A | 0.13
A14U C45A | 0.07
G19C G27C | 0.61
C13U C18U | 0.12
G22C C31A | 0.14
G17C U43C | 0.08
G30C C37A | 0.07
U38G C46A | 0.02
G21U G30C | 2.18
A6U A11G | 0.04
G5C C31A | 0.08
G2C C31U | 0.08
G5U U38A | 0.08
G2U C15A | 0.04
A4G G5A | 0.15
U20A A39C | 0.08
G17C A24U | 0.6
G1U G19A | 0.57
C13U C46U | 0.3
G22U C42U | 0.39

Variant | self-cleavage
G22U C42G | 0.04
G1U G40A | 0.04
G2C A12G | 0.07
C18G G19A | 0.31
A14G C15A | 0.08
G1A A41G | 0.26
G1A A41C | 0.09
A11C C45G | 0.02
C3A U43G | 0.04
G17A C42G | 0.12
C10U C37G | 0.02
G17A G36A | 0.1
C10A A25U | 0.1
G17C C18G | 0.07
U34C | 0.13
U28G C37G | 0.03
G5C A39G | 0.07
G7U C31U | 0.1
G1C U20A | 0.06
G35U C46A | 0.11
C10U G33C | 0.04
U9G C18G | 0.04
